Target: IBV polymerase trimeric complex (Pol3): PA-His, PB1, PB2 (influenza B virus)
Assay: SPR; Biacore T200; […]; running buffer HBS-EP+; 1:1 fit model

Chain of human ANP32A, purified (GST cleaved) (P39687 whole entry): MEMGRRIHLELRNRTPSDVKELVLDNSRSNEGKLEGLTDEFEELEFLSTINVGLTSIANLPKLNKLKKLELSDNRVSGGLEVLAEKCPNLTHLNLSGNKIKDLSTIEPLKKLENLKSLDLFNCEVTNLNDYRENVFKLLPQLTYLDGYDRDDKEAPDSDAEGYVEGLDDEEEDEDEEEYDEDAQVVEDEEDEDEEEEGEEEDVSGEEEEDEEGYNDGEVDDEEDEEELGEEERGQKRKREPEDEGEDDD

Substance: human ANP32A, purified (GST cleaved) (from UniProt P39687 1-249) (natural protein)
- Kd: 54.2 nM
- ka relative to chANP32A and huANP32A+33 (fold): 2 fold

Substance: chicken ANP32A, purified (GST cleaved) (natural protein)
- KD of chANP32A relative to that of huANP32A (fold): 3 fold

Substance: human ANP32A with the 33-amino-acid insert, purified (GST cleaved)
- Kd: 101 nM
